B1: EfGCT (Enterococcus faecalis glycerol 3-phosphate cytidylyltransferase) (Enterococcus faecalis V583) (protein)
chain: MKKILTYGTFDLLHYGHINLLKKAKQQGDYLIVGLSTDAFNLEKKKQSYFSYEKRKQLLEAIRYVDLVIPETSWKQKVSDIAEFKIDTLVMGDDWQGAFDFLEVETTAKVLYLPRTPEVSTTQIKKELYYSE
B2: LmGCT (Listeria monocytogenes glycerol 3-phosphate cytidylyltransferase) (Listeria monocytogenes EGD-e) (protein)
chain: MKKVITYGTFDLLHWGHIHLLKRAKALGDYLIVAISSDEFNRIKHKEAYHSYEHRKLIIEAIRYVDEVIPENNWEQKRDDIEKYGIDVFVMGDDWEGEFDFLKDVCEVVYLPRTEGISTSQIKDELK

Substrate: Nc1ccn([C@@H]2O[C@H](COP(=O)(O)OP(=O)(O)OP(=O)(O)O)[C@@H](O)[C@H]2O)c(=O)n1
Experiment: purified protein
Details: 20 mM glycerol phosphate, 6 mM MgCl2, 20 mM Tris-HCl pH 8, 37°C

Protein | Km | kcat
B1 | 2420 µM | 1.51 s⁻¹
B2 | 1520 µM | 4.15 s⁻¹
